Experimental data from patent US20140371143A1.

Target: RANKL ectodomain (eRANKL, residues 157-316) of rat (rat) (UniProt Q9ESE2)
Experiment: crystal structure of the complex

UniProt Q9ESE2, sequence (Q9ESE2 157-316 limits assumed): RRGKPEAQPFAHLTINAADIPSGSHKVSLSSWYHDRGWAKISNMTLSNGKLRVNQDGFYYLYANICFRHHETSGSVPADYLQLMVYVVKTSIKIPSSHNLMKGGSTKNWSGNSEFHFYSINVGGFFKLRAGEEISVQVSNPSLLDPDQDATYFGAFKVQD

reduction of solvent accessible surface area on binding: 7680 Å^2
reduction of solvent accessible surface area on binding, share of the total accessible surface area of unbound receptors and ligands: 15.4%
Substance: RANK ectodomain (eRANK, residue 32-201) of rat (receptor)
